Consider one molecule from patent publication US20240140995A1.

In assay [1] the target is T1, GthCol (Geobacillus thermoglucosidasius C-terminal Colicin DNase domain, C36A, H78A, engineered) (Geobacillus thermoglucosidasius). The experiment in a line: SPR Biacore T200, 37 C, single cycle kinetics; […]. The conditions noted are these: remark: other sources report otherwise.
Assay [2] addresses T1, GthCol (Geobacillus thermoglucosidasius …). The assay can be described thus: SPR Biacore T200, 37 C, single cycle kinetics. The note with it: remark: other sources report otherwise.

B1: E. coli IM-7, singly biotinylated, Q03708 1-87 (protein)
chain: MELKNSISDYTEAEFVQLLKEIEKENVAATDDVLDVLLEHFVKITEHPDGTDLIYYPSDNRDDSPEGIVKEIKEWRAANGKPGFKQG
As a reminder, the Kd is the constant that tells how readily two partners part at equilibrium. Low values mean tighter binding, high ones weaker binding. Usually koff stands for the rate constant with which the complex falls apart. The low end stands for slow dissociation, the high end for fast dissociation. Broadly, the kon is a measure of how fast the partners come together. Read a high kon as fast association. As to B1, in assay [1], the Kd is 74 pM; the MR (Molar Ratio, binding stoichiometry) is 1.1; the koff was found to be 9.2e-05 s⁻¹; the kon was 1.2e+06 M⁻¹ s⁻¹. The molecule also had a complex half-life t/2-diss in assay [2] of 2.1 h.
